Assay results: the supplement of paper PMC9112550, “Optimization of the antimicrobial peptide Bac7 by deep mutational scanning” (BMC Biology, 2022)

Tested on: Escherichia coli TOP10
Experiment: shrunken log2 fold change of peptide-encoding DNA abundance (4.5 h post-induction vs induction); higher = less antimicrobial activity (less host growth inhibition)
Details: time post-induction: 4.5 h; library: site-saturation at positions 5, 18, 19, 20
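Further: peptides expressed intracellularly from a pBAD plasmid library in pooled LB shake-flask culture, induced with 0.3% L-arabinose, DNA abundance read by NGS, three biological replicates, DESeq2 with apeglm shrinkage.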

| Sequence | shrunken log2 fold change |
| --- | --- |
| RRIRSRPPRLPRPRPRPRNIPRP | -0.28 |
| RRIRSRPPRLPRPRPRPRNMPRP | -0.53 |
| RRIRSRPPRLPRPRPRPRPGPRP | 0.658 |
| RRIRSRPPRLPRPRPRPRPHPRP | 0.151 |
| RRIRSRPPRLPRPRPRPRPNPRP | 0.345 |
| RRIRSRPPRLPRPRPRPRRKPRP | 0.207 |
| RRIRSRPPRLPRPRPRPRTEPRP | 0.00553 |
| RRIRSRPPRLPRPRPRPSCCPRP | -0.102 |
| RRIRSRPPRLPRPRPRPSDGPRP | -0.124 |
| RRIRSRPPRLPRPRPRPSDKPRP | -0.351 |
| RRIRSRPPRLPRPRPRPSDSPRP | -0.612 |
| RRIRSRPPRLPRPRPRPSDTPRP | -0.396 |
| RRIRSRPPRLPRPRPRPSEDPRP | -0.325 |
| RRIRSRPPRLPRPRPRPSEVPRP | -0.015 |
| RRIRSRPPRLPRPRPRPSFHPRP | -0.542 |
| RRIRSRPPRLPRPRPRPSFMPRP | -0.335 |
| RRIRSRPPRLPRPRPRPSHFPRP | -0.182 |
| RRIRSRPPRLPRPRPRPSHHPRP | -0.515 |
| RRIRSRPPRLPRPRPRPSICPRP | -0.0672 |
| RRIRSRPPRLPRPRPRPSISPRP | -0.584 |
| RRIRSRPPRLPRPRPRPSKAPRP | -0.0678 |
| RRIRSRPPRLPRPRPRPSLVPRP | -0.345 |
| RRIRSRPPRLPRPRPRPSMQPRP | -0.242 |
| RRIRSRPPRLPRPRPRPSNLPRP | -0.193 |
| RRIRSRPPRLPRPRPRPSPFPRP | -0.191 |

| Sequence | shrunken log2 fold change |
| --- | --- |
| RRIRSRPPRLPRPRPRPSPRPRP | 0.217 |
| RRIRSRPPRLPRPRPRPSQVPRP | -0.323 |
| RRIRSRPPRLPRPRPRPSREPRP | -0.173 |
| RRIRSRPPRLPRPRPRPSRTPRP | 0.822 |
| RRIRSRPPRLPRPRPRPSTQPRP | 2.48 |
| RRIRSRPPRLPRPRPRPSVWPRP | 0.0903 |
| RRIRSRPPRLPRPRPRPSYEPRP | -0.426 |
| RRIRSRPPRLPRPRPRPSYWPRP | 2.29 |
| RRIRSRPPRLPRPRPRPTAGPRP | 0.679 |
| RRIRSRPPRLPRPRPRPTDKPRP | -0.242 |
| RRIRSRPPRLPRPRPRPTDLPRP | -0.464 |
| RRIRSRPPRLPRPRPRPTEAPRP | 0.0706 |
| RRIRSRPPRLPRPRPRPTEWPRP | 0.00483 |
| RRIRSRPPRLPRPRPRPTFRPRP | -0.0691 |
| RRIRSRPPRLPRPRPRPTHMPRP | 0.188 |
| RRIRSRPPRLPRPRPRPTHPPRP | 0.298 |
| RRIRSRPPRLPRPRPRPTIFPRP | -0.377 |
| RRIRSRPPRLPRPRPRPTIMPRP | -0.508 |
| RRIRSRPPRLPRPRPRPTIPPRP | -0.104 |
| RRIRSRPPRLPRPRPRPTKPPRP | 0.196 |
| RRIRSRPPRLPRPRPRPTLFPRP | 0.206 |
| RRIRSRPPRLPRPRPRPTNAPRP | -0.0746 |
| RRIRSRPPRLPRPRPRPTNNPRP | -0.455 |
| RRIRSRPPRLPRPRPRPTPSPRP | 0.376 |
| RRIRSRPPRLPRPRPRPTPWPRP | 0.349 |

| Sequence | shrunken log2 fold change |
| --- | --- |
| RRIRSRPPRLPRPRPRPTQSPRP | 0.449 |
| RRIRSRPPRLPRPRPRPTRFPRP | 0.2 |
| RRIRSRPPRLPRPRPRPTRIPRP | -0.0163 |
| RRIRSRPPRLPRPRPRPTSQPRP | 0.0259 |
| RRIRSRPPRLPRPRPRPTSSPRP | -0.296 |
| RRIRSRPPRLPRPRPRPTVVPRP | -0.112 |
| RRIRSRPPRLPRPRPRPTWCPRP | 0.18 |
| RRIRSRPPRLPRPRPRPVAYPRP | -0.0936 |
| RRIRSRPPRLPRPRPRPVCFPRP | 0.156 |
| RRIRSRPPRLPRPRPRPVDKPRP | -0.175 |
| RRIRSRPPRLPRPRPRPVDNPRP | -0.493 |
| RRIRSRPPRLPRPRPRPVDYPRP | -0.268 |
| RRIRSRPPRLPRPRPRPVENPRP | 0.0506 |
| RRIRSRPPRLPRPRPRPVESPRP | -0.0897 |
| RRIRSRPPRLPRPRPRPVFVPRP | -0.00419 |
| RRIRSRPPRLPRPRPRPVHPPRP | 0.245 |
| RRIRSRPPRLPRPRPRPVHYPRP | -0.707 |
| RRIRSRPPRLPRPRPRPVIQPRP | -0.178 |
| RRIRSRPPRLPRPRPRPVKNPRP | 0.291 |
| RRIRSRPPRLPRPRPRPVLSPRP | 0.0825 |
| RRIRSRPPRLPRPRPRPVLWPRP | 0.657 |
| RRIRSRPPRLPRPRPRPVNGPRP | -0.00994 |
| RRIRSRPPRLPRPRPRPVNHPRP | -0.462 |
| RRIRSRPPRLPRPRPRPVPYPRP | -0.248 |
| RRIRSRPPRLPRPRPRPVQVPRP | 0.159 |
